According to the supplement of paper PMC9233669:
Fewer inactive variants are shown than the library holds.

Columns and labels:
biotinyl-Phe-oxazolone = assay: self-aminoacylation, catalytic enhancement (BFO) (fold over background); higher = more active; k-Seq, kA / k0A0; sequences stand for … in GGGAAUGGAUCCACAUCUACGAAUUC…UUCACUGCAGACUUGACGAAGCUG
In short: (§1)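 Mutagenized RNA pools with a 21-nt variable region (0.43 μM) reacted with each biotinyl-aminoacyl-oxazolone at 2–1250 μM. Reactions ran in 50 μL HEPES/NaCl/KCl/MgCl2/CaCl2 buffer with 5% acetonitrile, pH 6.9–7.0, for 90 minutes at room temperature. Streptavidin-captured RNA was quantified by triplicate qPCR and Illumina sequencing, and per-sequence fraction reacted was fit to a pseudo-first-order model with 1000 bootstraps. Catalytic enhancement is median kA divided by the uncatalyzed rate, the low-activity peak of a bimodal Gaussian fit.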

biotinyl-Ile-oxazolone = assay: self-aminoacylation, catalytic enhancement (BIO) (fold over background); higher = more active; k-Seq, kA / k0A0; sequences stand for … in GGGAAUGGAUCCACAUCUACGAAUUC…UUCACUGCAGACUUGACGAAGCUG
In short: as §1

biotinyl-Met-oxazolone = assay: self-aminoacylation, catalytic enhancement (BMO) (fold over background); higher = more active; k-Seq, kA / k0A0; sequences stand for … in GGGAAUGGAUCCACAUCUACGAAUUC…UUCACUGCAGACUUGACGAAGCUG
In short: as §1

biotinyl-Val-oxazolone = assay: self-aminoacylation, catalytic enhancement (BVO) (fold over background); higher = more active; k-Seq, kA / k0A0; sequences stand for … in GGGAAUGGAUCCACAUCUACGAAUUC…UUCACUGCAGACUUGACGAAGCUG
In short: as §1

biotinyl-Leu-oxazolone = assay: self-aminoacylation, catalytic enhancement (BLO) (fold over background); higher = more active; k-Seq, kA / k0A0; sequences stand for … in GGGAAUGGAUCCACAUCUACGAAUUC…UUCACUGCAGACUUGACGAAGCUG
In short: as §1

biotinyl-Trp-oxazolone = assay: self-aminoacylation, catalytic enhancement (BWO) (fold over background); higher = more active; k-Seq, kA / k0A0; sequences stand for … in GGGAAUGGAUCCACAUCUACGAAUUC…UUCACUGCAGACUUGACGAAGCUG
In short: as §1

Sequence	self-aminoacylation (biotinyl-Phe-oxazolone)	self-aminoacylation (biotinyl-Ile-oxazolone)	self-aminoacylation (biotinyl-Met-oxazolone)	self-aminoacylation (biotinyl-Val-oxazolone)	self-aminoacylation (biotinyl-Leu-oxazolone)	self-aminoacylation (biotinyl-Trp-oxazolone)
CUACUUCAGGCAAUCGGUCUG [Fam1A.1 aminoacylation ribozyme variant]	1.02	0.94	0.853	1.24	1.42	1.27
CUACUUGAAACAAUCGGUCCG [Fam1A.1 aminoacylation ribozyme variant]	0.497	0.929	1.31	1.02	0.748	1.48
AUUACUCUGGUCUUCGAGUGA [Fam2.1 aminoacylation ribozyme variant]	21.2	3.13	5.11	2.85	5.04	7.1
CCUCACUUCCAGCAAUCGGUC [Fam1B.1 aminoacylation ribozyme variant]	1.23	1.05	0.651	1.06	0.861	0.965
AGUACCCUGCUCAUCGAGUGA [Fam2.1 aminoacylation ribozyme variant]	1.88	1.2	2.06	1.28	1.77	1.88
CUACGUCAAACAGUCGGUCUG [Fam1A.1 aminoacylation ribozyme variant]	3.92	1.14	1.25	1.52	1.75	1.14
AUUCACCUAGGGCAUCUGGUG [Fam2.2 aminoacylation ribozyme variant]	13	2.11	2.63	2.33	3.23	2.64
CUACUCUAAACAAUCGGUCUG [Fam1A.1 aminoacylation ribozyme variant]	0.77	0.808	0.776	0.873	0.727	0.651
CCACACAUUAAGCAAUCGGUC [Fam1B.1 aminoacylation ribozyme variant]	1	0.966	0.709	0.867	0.667	0.62
AUAUACCUAGGUCAUCGGGUG [Fam2.2 aminoacylation ribozyme variant]	25.9	2.65	3.97	2.74	5.38	4.16
AAGUUUGCUAUUACUCGCAAG [Fam3.1 aminoacylation ribozyme variant]	1.09	0.728	0.734	0.868	0.82	0.738
GCACACUUCAAGCAUUCGGUC [Fam1B.1 aminoacylation ribozyme variant]	4.96	2.57	2.09	2.59	2.17	3.5
CUACUCCAAACAAUCGAUCUG [Fam1A.1 aminoacylation ribozyme variant]	0.831	0.704	0.48	0.661	0.533	0.384
AAGUUUGUUAAUAGUCGUAAG [Fam3.1 aminoacylation ribozyme variant]	1.38	0.929	0.893	0.808	0.902	0.911
AUUCAACUAGGUCAUCGGCUG [Fam2.2 aminoacylation ribozyme variant]	5.81	1.57	1.91	1.75	1.46	1.45
UUUACCCUGGUCAUCAAGUGA [Fam2.1 aminoacylation ribozyme variant]	3.22	1.25	2.24	1.63	1.85	3.07
CCACAGUUCAAGCAAUCAGUC [Fam1B.1 aminoacylation ribozyme variant]	1.73	0.829	0.662	0.781	0.76	0.814
AUUACCCUAGUCAUCGAAUGA [Fam2.1 aminoacylation ribozyme variant]	0.87	0.919	1.02	1.06	0.924	0.469
CUACUUAAAACAGUCGGUCUG [Fam1A.1 aminoacylation ribozyme variant]	0.624	0.799	0.742	0.78	1.05	0.454
CUAGUGCAAACAAUCGGUCUG [Fam1A.1 aminoacylation ribozyme variant]	2.39	0.998	0.962	1	1.03	0.9
CCACACUUCUUGCAAUCGGUC [Fam1B.1 aminoacylation ribozyme variant]	0.7	0.783	0.76	0.765	0.72	0.654
CUACUUCAAAAAAUCGGUCUG [Fam1A.1 aminoacylation ribozyme variant]	11.8	1	0.758	0.795	0.92	7.37
AUGACCCUGGUCAUCGAGUAA [Fam2.1 aminoacylation ribozyme variant]	31.5	3.71	10.1	3.51	10.2	8.31
AGUACCGUGGUCAUCGAGUGA [Fam2.1 aminoacylation ribozyme variant]	24.1	3.61	5.19	3.39	5.87	5.99
AUUCACCUAGGUCAUCAGAUG [Fam2.2 aminoacylation ribozyme variant]	0.715	0.857	0.656	0.872	0.928	0.522
CCACUCGUCAAGCAAUCGGUC [Fam1B.1 aminoacylation ribozyme variant]	0.586	1.15	1.18	1.58	1.35	0.864

Sequence	self-aminoacylation (biotinyl-Phe-oxazolone)	self-aminoacylation (biotinyl-Ile-oxazolone)	self-aminoacylation (biotinyl-Met-oxazolone)	self-aminoacylation (biotinyl-Val-oxazolone)	self-aminoacylation (biotinyl-Leu-oxazolone)	self-aminoacylation (biotinyl-Trp-oxazolone)
AUUUACCUAGGUCAUCGGGUG [Fam2.2 aminoacylation ribozyme variant]	235	18.3	33.2	15.4	45	26.1
AUUACCCUGCUCACCGAGUGA [Fam2.1 aminoacylation ribozyme variant]	39	2.76	5.34	3.35	6.12	6.29
CCACACUUCAAUUAAUCGGUC [Fam1B.1 aminoacylation ribozyme variant]	26.1	1.01	0.937	1.06	1.09	15.6
CUACUUCCAACAAUAGGUCUG [Fam1A.1 aminoacylation ribozyme variant]	0.659	0.744	0.562	0.688	0.578	0.417
CCACACUUGAAGCAAUAGGUC [Fam1B.1 aminoacylation ribozyme variant]	0.578	0.563	0.509	0.513	0.471	0.438
AAGGUUGCUAGUAGUCGCAAG [Fam3.1 aminoacylation ribozyme variant]	1.77	1.18	1.3	1.07	0.971	1.3
CUACUUCAAACCAUCGGUCAG [Fam1A.1 aminoacylation ribozyme variant]	0.853	0.67	0.609	0.771	0.488	0.762
CCACACUUCAAUCAAUCGGUC [Fam1B.1 aminoacylation ribozyme variant]	42.7	1.1	1.05	1.17	1.51	21.8
AUUCACCUGGGCCAUCGGGUG [Fam2.2 aminoacylation ribozyme variant]	35.7	4.03	6.2	5.03	6.53	4.74
AUUCACCUAGGCCGUCGGGUG [Fam2.2 aminoacylation ribozyme variant]	17.1	1.87	1.94	2.3	2.74	2.11
CUAAUUCAAAGAAUCGGUCUG [Fam1A.1 aminoacylation ribozyme variant]	0.767	0.805	0.742	0.842	0.806	0.78
AUACGCCUAGGUCAUCGGGUG [Fam2.2 aminoacylation ribozyme variant]	36	4.85	7.57	4.07	7.77	7.38
UUUACCCUGGUCAUUGAGUGA [Fam2.1 aminoacylation ribozyme variant]	38.1	3.76	7.86	3.91	7.06	10.1
GAGUUUGCUAAUAGUCGCAAA [Fam3.1 aminoacylation ribozyme variant]	3.15	2.47	1.64	2.15	1.93	1.59
GUACUUCAAACAAUCGGUCUG [Fam1A.1 aminoacylation ribozyme variant]	51.3	1.54	1.53	1.42	2.15	30.5
AUUACCCUGGUCCUAGAGUGA [Fam2.1 aminoacylation ribozyme variant]	45.8	4.03	9.27	4.85	9.4	10.8
CCACACUUCACGCAAUUGGUC [Fam1B.1 aminoacylation ribozyme variant]	0.859	0.951	0.667	1.03	0.957	0.792
AUCACGCUGGUCAUCGAGUGA [Fam2.1 aminoacylation ribozyme variant]	33.1	4.36	6.1	4.4	5.91	6.96
CUAAUUCAAACAAUCGCUCUG [Fam1A.1 aminoacylation ribozyme variant]	0.713	0.628	0.668	0.653	0.527	0.67
AUUUACCUAGGUCAUUGGGUG [Fam2.2 aminoacylation ribozyme variant]	19.7	2.34	3.54	2.26	3.79	3.11
AUUCACCUACGUCAUUGGGUG [Fam2.2 aminoacylation ribozyme variant]	10.9	1.5	1.97	1.51	2.47	1.51
AUUACCCUUGUCAUCGAGUGG [Fam2.1 aminoacylation ribozyme variant]	1.98	1.25	2.03	1.54	1.85	1
CCACACUUUAAGCAAUCGGGC [Fam1B.1 aminoacylation ribozyme variant]	1.22	1.61	1.63	1.34	1.65	1.01
AAGUUUGCUAAUAGACGCAUG [Fam3.1 aminoacylation ribozyme variant]	0.785	0.645	0.48	0.59	0.553	0.703
AAGUUCGCUAAUAGUCGCAUG [Fam3.1 aminoacylation ribozyme variant]	8.49	2.16	2.27	2.37	2.88	3.05
